Experimental data from the supplement of paper PMC10567573.

B1: WEE1 (parent)
chain: FLGSSFSPVRCGGPGDASPRGCGA

Variants of: B1
Test: protein stability index of a GFP-peptide fusion (GPS, HEK-293T) (PSI 1-6); higher = more stable
Conditions: c terminus: a fixed tail appended
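Further: lentivirally expressed fusions sorted by FACS into six bins by GFP to DsRed ratio, PSI derived from sequencing read proportions per bin multiplied by bin number.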

Row | Variant | protein stability index
1 | FLGSSFSPLRCGGPGDASPRGCGA [V9L] | 1.1
2 | FLGSSFSPKRCGGPGDASPRGCGA [V9K] | 1.93
3 | FLGSSFSPSRCGGPGDASPRGCGA [V9S] | 1.88
4 | FLGSSFSPERCGGPGDASPRGCGA [V9E] | 2.79
5 | FLGSSFSPDRCGGPGDASPRGCGA [V9D] | 2.58
6 | FLGSSFSPPRCGGPGDASPRGCGA [V9P] | 2.58
7 | FLGSSFSPCRCGGPGDASPRGCGA [V9C] | 3.15
8 | FLGSSFSPTRCGGPGDASPRGCGA [V9T] | 1.88
9 | FLGSSFSPYRCGGPGDASPRGCGA [V9Y] | 1.25
10 | FLGSSFSPNRCGGPGDASPRGCGA [V9N] | 2.51
11 | FLGSSFSPGRCGGPGDASPRGCGA [V9G] | 2.25
12 | FLGSSFSPMRCGGPGDASPRGCGA [V9M] | 2.69
13 | FLGSSFSPRRCGGPGDASPRGCGA [V9R] | 2.39
14 | FLGSSFSPIRCGGPGDASPRGCGA [V9I] | 1.8
15 | FLGSSFSPWRCGGPGDASPRGCGA [V9W] | 2.19
16 | FLGSSFSPQRCGGPGDASPRGCGA [V9Q] | 1.76
17 | FLGSSFSPHRCGGPGDASPRGCGA [V9H] | 2.22
18 | FLGSSFSPARCGGPGDASPRGCGA [V9A] | 2.11
19 | FLGSSFSPVRCAGPGDASPRGCGA [G12A] | 1.78
20 | FLGSSFSPVRCNGPGDASPRGCGA [G12N] | 2.56
21 | FLGSSFSPVRCYGPGDASPRGCGA [G12Y] | 2.65
22 | FLGSSFSPVRCDGPGDASPRGCGA [G12D] | 1.85
23 | FLGSSFSPVRCRGPGDASPRGCGA [G12R] | 2.1
24 | FLGSSFSPVRCIGPGDASPRGCGA [G12I] | 1.3

Row | Variant | protein stability index
25 | FLGSSFSPVRCLGPGDASPRGCGA [G12L] | 2.44
26 | FLGSSFSPVRCHGPGDASPRGCGA [G12H] | 3.11
27 | FLGSSFSPVRCQGPGDASPRGCGA [G12Q] | 2.07
28 | FLGSSFSPVRCVGPGDASPRGCGA [G12V] | 1.43
29 | FLGSSFSPVRCSGPGDASPRGCGA [G12S] | 2
30 | FLGSSFSPVRCPGPGDASPRGCGA [G12P] | 2.38
31 | FLGSSFSPVRCWGPGDASPRGCGA [G12W] | 1.9
32 | FLGSSFSPVRCFGPGDASPRGCGA [G12F] | 1.43
33 | FLGSSFSPVRCKGPGDASPRGCGA [G12K] | 2.31
34 | FLGSSFSPVRCTGPGDASPRGCGA [G12T] | 1.63
35 | FLGSSFSPVRCCGPGDASPRGCGA [G12C] | 2.04
36 | FLGSSFSPVRCEGPGDASPRGCGA [G12E] | 2.03
37 | FLGSSFSPVRCMGPGDASPRGCGA [G12M] | 1.83
38 | FLGSSFSPVRCGGPDDASPRGCGA [G15D] | 2.06
39 | FLGSSFSPVRCGGPADASPRGCGA [G15A] | 2.45
40 | FLGSSFSPVRCGGPSDASPRGCGA [G15S] | 2.02
41 | FLGSSFSPVRCGGPTDASPRGCGA [G15T] | 2.25
42 | FLGSSFSPVRCGGPPDASPRGCGA [G15P] | 1.75
43 | FLGSSFSPVRCGGPNDASPRGCGA [G15N] | 1.77
44 | FLGSSFSPVRCGGPIDASPRGCGA [G15I] | 1.82
45 | FLGSSFSPVRCGGPKDASPRGCGA [G15K] | 1.93
46 | FLGSSFSPVRCGGPWDASPRGCGA [G15W] | 3.02
47 | FLGSSFSPVRCGGPCDASPRGCGA [G15C] | 1.25
48 | FLGSSFSPVRCGGPFDASPRGCGA [G15F] | 2.6

Row | Variant | protein stability index
49 | FLGSSFSPVRCGGPMDASPRGCGA [G15M] | 1.88
50 | FLGSSFSPVRCGGPYDASPRGCGA [G15Y] | 2.37
51 | FLGSSFSPVRCGGPEDASPRGCGA [G15E] | 1.59
52 | FLGSSFSPVRCGGPQDASPRGCGA [G15Q] | 1.45
53 | FLGSSFSPVRCGGPVDASPRGCGA [G15V] | 1.65
54 | FLGSSFSPVRCGGPHDASPRGCGA [G15H] | 1.76
55 | FLGSSFSPVRCGGPRDASPRGCGA [G15R] | 1.56
56 | FLGSSFSPVRCGGPLDASPRGCGA [G15L] | 2.68
57 | FLGSSFSPVRCGCPGDASPRGCGA [G13C] | 2.58
58 | FLGSSFSPVRCGFPGDASPRGCGA [G13F] | 1.51
59 | FLGSSFSPVRCGSPGDASPRGCGA [G13S] | 2.29
60 | FLGSSFSPVRCGNPGDASPRGCGA [G13N] | 2.38
61 | FLGSSFSPVRCGLPGDASPRGCGA [G13L] | 2.58
62 | FLGSSFSPVRCGVPGDASPRGCGA [G13V] | 2.05
63 | FLGSSFSPVRCGIPGDASPRGCGA [G13I] | 2.43
64 | FLGSSFSPVRCGYPGDASPRGCGA [G13Y] | 1.63
65 | FLGSSFSPVRCGWPGDASPRGCGA [G13W] | 1.56
66 | FLGSSFSPVRCGMPGDASPRGCGA [G13M] | 1.58
67 | FLGSSFSPVRCGAPGDASPRGCGA [G13A] | 1.94
68 | FLGSSFSPVRCGHPGDASPRGCGA [G13H] | 1.87
69 | FLGSSFSPVRCGRPGDASPRGCGA [G13R] | 1.87
70 | FLGSSFSPVRCGQPGDASPRGCGA [G13Q] | 2.98
71 | FLGSSFSPVRCGEPGDASPRGCGA [G13E] | 1.52
72 | FLGSSFSPVRCGKPGDASPRGCGA [G13K] | 2.29

Row | Variant | protein stability index
73 | FLGSSFSPVRCGPPGDASPRGCGA [G13P] | 2.12
74 | FLGSSFSPVRCGDPGDASPRGCGA [G13D] | 1.57
75 | FLGSSFSPVRCGTPGDASPRGCGA [G13T] | 1.55
76 | FLGSSFSPVQCGGPGDASPRGCGA [R10Q] | 1.84
77 | FLGSSFSPVVCGGPGDASPRGCGA [R10V] | 2
78 | FLGSSFSPVHCGGPGDASPRGCGA [R10H] | 2.63
79 | FLGSSFSPVCCGGPGDASPRGCGA [R10C] | 1.73
80 | FLGSSFSPVDCGGPGDASPRGCGA [R10D] | 2.68
81 | FLGSSFSPVWCGGPGDASPRGCGA [R10W] | 4.78
82 | FLGSSFSPVMCGGPGDASPRGCGA [R10M] | 1.64
83 | FLGSSFSPVGCGGPGDASPRGCGA [R10G] | 1.42
84 | FLGSSFSPVNCGGPGDASPRGCGA [R10N] | 2.33
85 | FLGSSFSPVSCGGPGDASPRGCGA [R10S] | 1.8
86 | FLGSSFSPVACGGPGDASPRGCGA [R10A] | 1.83
87 | FLGSSFSPVFCGGPGDASPRGCGA [R10F] | 2.95
88 | FLGSSFSPVYCGGPGDASPRGCGA [R10Y] | 1.07
89 | FLGSSFSPVECGGPGDASPRGCGA [R10E] | 3.27
90 | FLGSSFSPVTCGGPGDASPRGCGA [R10T] | 2.25
91 | FLGSSFSPVLCGGPGDASPRGCGA [R10L] | 2.52
92 | FLGSSFSPVICGGPGDASPRGCGA [R10I] | 2.25
93 | FLGSSFSPVPCGGPGDASPRGCGA [R10P] | 2.04
94 | FLGSSFSPVKCGGPGDASPRGCGA [R10K] | 2.68
